Measurements reported in article PMC13226697, “Stress-induced OMA1-mediated cleavage of AIFM1 suppresses cell growth by controlling mitochondrial OXPHOS activity” (The EMBO Journal, 2026).

Target: the molecule itself
Assay: native gel or EMSA; CN-PAGE of mitochondria solubilised in 0.5% digitonin, with or without FCCP, immunoblot with AIFM1 antibodies

B1: AIFM1^TCS/TEV, soluble product of AIFM1^TCS cleaved by IMS-TEV protease (domain or fragment, murine)
chain: GVMGLGLSPEEKQRRAIASATEGGSVPQIRAPSHVPFLLIGGGTAAFAAARSIRARDPGARVLIVSEDPELPYMRPPLSKELWFSDDPNVTKTLQFRQWNGKERSIYFQPPSFYVSAQDLPNIENGGVAVLTGKKVVHLDVRGNMVKLNDGSQITFEKCLIATGGTPRSLSAIDRAGAEVKSRTTLFRKIGDFRALEKISREVKSITVIGGGFLGSELACALGRKSQASGIEVIQLFPEKGNMGKILPQYLSNWTMEKVKREGVKVMPNAIVQSVGVSGGRLLIKLKDGRKVETDHIVTAVGLEPNVELAKTGGLEIDSDFGGFRVNAELQARSNIWVAGDAACFYDIKLGRRRVEHHDHAVVSGRLAGENMTGAAKPYWHQSMFWSDLGPDVGYEAIGLVDSSLPTVGVFAKATAQDNPKSATEQSGTGIRSESETESEASEITIPPSAPAVPQVPVEGEDYGKGVIFYLRDKVVVGIVLWNVFNRMPIARKIIKDGEQHEDLNEVAKLFNIHED
notes: additional glycine residue at the N-terminus, left from the TEV site ENLYFQG after TEV processing; Murine AIFM1 from V98, the residue after the replaced R97, to the end of A.A.1-612; Expected molecular weight ~60 kDa including the Myc tag; The dimer is an estimate from CN-PAGE; also called membrane-dislocated AIFM1 variant; soluble AIFM1^TCS/TEV; not shown: 3x Myc, C-terminal, kept
- stoichiometry N: 2
